In US20180105569A1 (INDIANA UNIVERSITY RESEARCH AND TECHNOLOGY, published 2018):
Numbered stars: 1 amine (or outer) side, 2 acyl side, 3 side chain; on linkers, the order of the positions; unused ones are H or OH. Square brackets hold non-standard residues; d marks the D form. Side chains are listed from the residue outwards. * marks the point of attachment. γGlu = O=C(O)[C@H](CCC(=O)[*:2])N[*:1]; Desaminotyrosyl = O=C(CCc1ccc(O)cc1)*; Palmitoyl = CCCCCCCCCCCCCCCC(=O)*

T1: GIP receptor (UniProt P48546 22-466, limits assumed)
T1 sequence (looked up): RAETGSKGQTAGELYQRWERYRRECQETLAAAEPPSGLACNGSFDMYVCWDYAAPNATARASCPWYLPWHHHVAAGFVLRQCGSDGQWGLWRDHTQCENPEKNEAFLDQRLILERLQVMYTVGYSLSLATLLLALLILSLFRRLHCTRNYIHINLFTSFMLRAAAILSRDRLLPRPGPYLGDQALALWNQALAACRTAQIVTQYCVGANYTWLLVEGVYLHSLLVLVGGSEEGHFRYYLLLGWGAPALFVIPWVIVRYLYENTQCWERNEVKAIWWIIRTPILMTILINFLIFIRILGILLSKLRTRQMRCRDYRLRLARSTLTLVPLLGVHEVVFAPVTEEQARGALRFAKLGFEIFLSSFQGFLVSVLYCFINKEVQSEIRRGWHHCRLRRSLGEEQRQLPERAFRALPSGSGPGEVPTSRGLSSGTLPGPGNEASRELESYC

B1: peptide of SEQ ID NO: 149 (peptide)
peptide: Ac-[dY]AQGTFTSDYSKYLDERAAQDFVQWLLEGGPSSGAPPPSK([γGlu-γGlu-Palmitoyl])G-NH2
B2: peptide of SEQ ID NO: 160 (peptide)
peptide: [Desaminotyrosyl]AQGTFTSDYSKYLDERAAQDFVQWLLEGGPSSGAPPPSK([γGlu-γGlu-Palmitoyl])G-NH2
B3: peptide of SEQ ID NO: 150 (peptide)
peptide: Ac-[dF]AQGTFTSDK([γGlu-Palmitoyl])SKYLDERAAQDFVQWLLEGGPSSGAPPPS-NH2
B4: peptide of SEQ ID NO: 157 (peptide)
peptide: [Desaminotyrosyl]AQGTFTSDYSKYLDERAAQDFVQWLLEGGPSSGAPPPSK(Palmitoyl)G-NH2
B5: peptide of SEQ ID NO: 152 (peptide)
peptide: Ac-[dH]AQGTFTSDYSKYLDERAAQDFVQWLLEGGPSSGAPPPSK([γGlu-γGlu-Palmitoyl])G-NH2
B6: peptide of SEQ ID NO: 146 (peptide)
peptide: Ac-[dY]AQGTFTSDK([γGlu-Palmitoyl])SKYLDERAAQDFVQWLLEAGPSSGAPPPS-NH2
SMILES: CCCCCCCCCCCCCCCC(=O)N[C@@H](CCC(=O)NCCCC[C@H](NC(=O)[C@H](CC(=O)O)NC(=O)[C@H](CO)NC(=O)[C@@H](NC(=O)[C@H](Cc1ccccc1)NC(=O)[C@@H](NC(=O)CNC(=O)[C@H](CCC(N)=O)NC(=O)[C@H](C)NC(=O)[C@@H](Cc1ccc(O)cc1)NC(C)=O)[C@@H](C)O)[C@@H](C)O)C(=O)N[C@@H](CO)C(=O)N[C@@H](CCCCN)C(=O)N[C@@H](Cc1ccc(O)cc1)C(=O)N[C@@H](CC(C)C)C(=O)N[C@@H](CC(=O)O)C(=O)N[C@@H](CCC(=O)O)C(=O)N[C@@H](CCCNC(=N)N)C(=O)N[C@@H](C)C(=O)N[C@@H](C)C(=O)N[C@@H](CCC(N)=O)C(=O)N[C@@H](CC(=O)O)C(=O)N[C@@H](Cc1ccccc1)C(=O)N[C@H](C(=O)N[C@@H](CCC(N)=O)C(=O)N[C@@H](Cc1c[nH]c2ccccc12)C(=O)N[C@@H](CC(C)C)C(=O)N[C@@H](CC(C)C)C(=O)N[C@@H](CCC(=O)O)C(=O)N[C@@H](C)C(=O)NCC(=O)N1CCC[C@H]1C(=O)N[C@@H](CO)C(=O)N[C@@H](CO)C(=O)NCC(=O)N[C@@H](C)C(=O)N1CCC[C@H]1C(=O)N1CCC[C@H]1C(=O)N1CCC[C@H]1C(=O)N[C@@H](CO)C(N)=O)C(C)C)C(=O)O
B7: peptide of SEQ ID NO: 143 (peptide)
peptide: Ac-[dY]AQGTFTSDK([γGlu-Palmitoyl])SKYLDERAAQDFVQWLLDAGPSSGAPPPS-NH2
B8: peptide of SEQ ID NO: 153 (peptide)
peptide: Ac-[dY]AQGTFTSDK([γGlu-Palmitoyl])SKYLDERAAQDFVQWLLDLGPSSGAPPPS-NH2

target: T2, GLP-1 receptor (UniProt P43220 24-463, limits assumed); assay: cell-based or functional assay

Binder | EC50 at GLP-1 Receptor (cAMP luciferase reporter, HEK293) [nM]
B1 | 0.002
B2 | 0.022
B3 | 0.002
B4 | 0.013

target: T3, glucagon receptor (UniProt P47871 26-477, limits assumed); assay: cell-based or functional assay
T3 sequence (P47871 26-477 limits assumed): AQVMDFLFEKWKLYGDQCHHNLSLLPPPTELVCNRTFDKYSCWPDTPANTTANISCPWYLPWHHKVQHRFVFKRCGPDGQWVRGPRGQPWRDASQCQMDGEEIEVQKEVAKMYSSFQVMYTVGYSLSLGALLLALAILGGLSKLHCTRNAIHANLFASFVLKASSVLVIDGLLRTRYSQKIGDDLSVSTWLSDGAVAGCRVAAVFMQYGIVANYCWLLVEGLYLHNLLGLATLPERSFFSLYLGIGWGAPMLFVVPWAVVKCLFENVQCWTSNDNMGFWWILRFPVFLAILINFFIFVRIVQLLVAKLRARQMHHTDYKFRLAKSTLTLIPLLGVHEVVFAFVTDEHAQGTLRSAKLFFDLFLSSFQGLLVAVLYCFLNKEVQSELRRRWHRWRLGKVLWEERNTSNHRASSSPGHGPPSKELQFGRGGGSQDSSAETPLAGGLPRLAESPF

Binder | EC50 at Glucagon Receptor (cAMP luciferase reporter, HEK293) [nM]
B1 | 0.012
B2 | 0.049
B3 | 0.014
B4 | 0.047

target: T1, GIP receptor; assay: cell-based or functional assay

Binder | EC50 at GIP Receptor (cAMP luciferase reporter, HEK293) [nM]
B1 | 0.008
B2 | 0.086
B3 | 0.011
B4 | 0.059

target: T2, GLP-1 receptor; assay: cell-based or functional assay; remark: another data set of the same source

Binder | EC50 at GLP-1 Receptor (cAMP luciferase reporter, HEK293) [nM]
B5 | 0.003
B6 | 0.007
B7 | 0.003
B8 | 0.017

target: T3, glucagon receptor; assay: cell-based or functional assay; remark: another data set of the same source

Binder | EC50 at Glucagon Receptor (cAMP luciferase reporter, HEK293) [nM]
B5 | 0.003
B6 | 0.009
B7 | 0.004
B8 | 0.021

target: T1, GIP receptor; assay: cell-based or functional assay; remark: another data set of the same source

Binder | EC50 at GIP Receptor (cAMP luciferase reporter, HEK293) [nM]
B5 | 0.017
B6 | 0.006
B7 | 0.003
B8 | 0.018
